Measurements published in paper PMC4573519 (PLoS ONE, 2015).
Changes are numbered by the printed parent chain.

T1: Asialofetuin (fetuin lacking sialic acid), biotinylated (bovine, UniProt P12763 19-359)
T1 construct: source: bought: Sigma-Aldrich
T1 sequence: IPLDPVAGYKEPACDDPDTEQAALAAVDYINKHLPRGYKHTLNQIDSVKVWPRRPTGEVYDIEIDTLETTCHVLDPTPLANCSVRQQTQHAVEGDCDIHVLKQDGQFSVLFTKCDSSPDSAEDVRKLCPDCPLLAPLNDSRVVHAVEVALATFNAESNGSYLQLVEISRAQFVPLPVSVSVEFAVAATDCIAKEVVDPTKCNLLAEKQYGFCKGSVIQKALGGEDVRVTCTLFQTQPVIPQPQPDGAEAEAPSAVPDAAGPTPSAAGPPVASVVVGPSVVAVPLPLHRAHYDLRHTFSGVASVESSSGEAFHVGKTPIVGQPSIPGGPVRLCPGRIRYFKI

T2: Fetuin (bovine serum glycoprotein), biotinylated (bovine, UniProt P12763 19-359)
T2 construct: source: bought: Sigma-Aldrich
T2 sequence: T1 sequence

B1: S2(PtxB1)S4his recombinant dimer of pertussis toxin subunits S2 (PtxB1 form) and S4 (complex)
chain 1: STPGIVIPPQEQITQHGGPYGRCANKTRALTVAELRGSGDLQEYLRHVTRGWSIFALYDGTYLGGEYGGVIKDGTPGGAFDLKTTFCIMTTRNTGQPATDHYYSNVTATRLLSSTNSRLCAVFVRSGQPVIGACTSPYDGKYWSMYSRLRKMLYLIYVAGISVRVHVSKEEQYYDYEDATFETYALTGISICNPGSSLC
chain 2: DVPYVLVKTNMVVTSVAMKPYEVTPTRMLVCGIAAKLGAAASSPDAHVPFCFGKDLKRPGSSPMEVMLRAVFMQQRPLRMFLGPKQLTFEGKPALELIRMVECSGKQDCP
B2: S3S4his recombinant dimer of pertussis toxin subunits S3 and S4 (complex)
chain 1: VAPGIVIPPKALFTQQGGAYGRCPNGTRALTVAELRGNAELQTYLRQITPGWSIYGLYDGTYLGQAYGGIIKDAPPGAGFIYRETFCITTIYKTGQPAADHYYSKVTATRLLASTNSRLCAVFVRDGQSVIGACASPYEGRYRDMYDALRRLLYMIYMSGLAVRVHVSKEEQYYDYEDATFQTYALTGISLCNPAASIC
chain 2: B1 chain 2
B3: S2(PtxB2)S4his recombinant dimer of pertussis toxin subunits S2 (PtxB2 form) and S4 (complex)
chain 1: B1 chain 1 with G18S
chain 2: B1 chain 2

Columns and labels:
[1] = target: T1, Asialofetuin (fetuin lacking sialic …); test: BLI; conditions: both partners purified
[2] = target: T2, Fetuin (bovine serum glycoprotein), …; test: BLI; conditions: both partners purified

| Binder | binding result [1] | binding result [2] |
| --- | --- | --- |
| B1 | binds | binds |
| B2 | binds | binds |
| B3 | binds | binds |
